The values below come from publication PMC11220700, “Activation and Purification of ß‐Glucocerebrosidase by Exploiting its Transporter LIMP‐2 – Implications for Novel Treatment Strategies in Gaucher's and Parkinson's Disease” (Advanced Science, 2024).

The target of one assay is T1, untagged human GCase wt (human, UniProt P04062-1 40-536).
T1 construct: human beta-glucocerebrosidase (GCase) wild type, untagged, secreted into the medium; also called wt GCase; beta-glucocerebrosidase; source: HEK 293F, transfected (with sLIMP-2 or alone), in conditioned medium; co-purified with sLIMP-2 (Ni-NTA, SEC)
T1 sequence (looked up): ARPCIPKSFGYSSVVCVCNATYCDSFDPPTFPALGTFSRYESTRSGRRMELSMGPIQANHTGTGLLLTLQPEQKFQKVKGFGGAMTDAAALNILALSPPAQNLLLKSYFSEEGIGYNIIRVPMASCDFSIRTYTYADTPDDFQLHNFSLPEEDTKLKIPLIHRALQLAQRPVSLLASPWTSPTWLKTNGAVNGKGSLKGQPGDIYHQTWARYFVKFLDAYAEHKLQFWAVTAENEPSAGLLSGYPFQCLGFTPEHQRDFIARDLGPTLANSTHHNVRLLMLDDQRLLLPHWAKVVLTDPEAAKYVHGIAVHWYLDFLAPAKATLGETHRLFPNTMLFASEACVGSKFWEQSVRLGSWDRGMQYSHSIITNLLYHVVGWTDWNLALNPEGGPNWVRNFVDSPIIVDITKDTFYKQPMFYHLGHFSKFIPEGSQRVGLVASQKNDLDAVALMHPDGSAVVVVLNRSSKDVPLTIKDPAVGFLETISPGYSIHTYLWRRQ
As to the kind of experiment: pull-down; Ni-NTA beads in conditioned medium of HEK 293F cells expressing His-tagged sLIMP-2 with untagged GCase (96 h); overnight at 4 °C; wash with 20 mM imidazole, elution with 400 mM imidazole, pH 8.0; western blot. To be noted: partners not purified. (In western blotting, separated proteins are transferred to a membrane and probed.)

The next assay concerns the target T2, untagged GCase E326K (human, UniProt P04062-1 40-536, E326K).
T2 construct: human beta-glucocerebrosidase (GCase), disease-associated variant E326K, untagged; printed also as p.Glu365Lys (NM_000157.4); numbers count on: the mature protein; also called E326K GCase; p.E326K; source: HEK 293F, transfected (with sLIMP-2 or alone), in conditioned medium; co-purified with sLIMP-2 (Ni-NTA, SEC)
T2 sequence (looked up): T1 sequence (looked up) with E326K
The assay is described as above. To be noted: partners not purified.

For the next assay, the target named is T3, untagged GCase N370S (human, UniProt P04062-1 40-536, N370S).
T3 construct: human beta-glucocerebrosidase (GCase), disease-associated variant N370S, untagged; numbers count on: the mature protein; also called N370S GCase; p.N370S; source: HEK 293F, transfected with sLIMP-2, in conditioned medium; co-purified with sLIMP-2 (Ni-NTA, SEC)
T3 sequence (looked up): T1 sequence (looked up) with N370S
Described as above. To be noted: partners not purified.

The target of assay [1] is T4, His‐tagged GCase wt (10xHis, C‐terminal, TEV‐cleavable) (human, UniProt P04062-1 40-536, red fluorescent dye NT-637 on amines (RED-NHS labelling kit), for MST).
T4 construct: human beta-glucocerebrosidase (GCase) wild type, secreted from cells transfected with pCMV-3-GBA-His; also called GCase-His; source: HEK 293F, transfected, purified from conditioned medium (Ni-NTA); not shown: 10xHis (TEV-cleavable), C-terminal, kept
T4 sequence (looked up): T1 sequence (looked up)
Description: MST; GCase-His labelled, L2H5-wt titrated; lysosomal pH (pH 5.0); saturation not reached. To be noted: both partners purified.

Assay [2] has as its target T4, His‐tagged GCase wt (10xHis, …). As to the kind of experiment: MST; GCase-His labelled with NT-637, fixed at 25 nM; L2H5-wt titrated in a twofold series of 16 from 125 µM; 50 mM sodium citrate + 0.05% Tween-20, pH 7.4 (cytosolic pH); ambient temperature; the two highest concentrations left out of the Kd fit. The note with it: both partners purified.

Numbering of substitutions follows the chain as printed. *: point of attachment. Biotin = O=C1N[C@H]2[C@H](CS[C@H]2CCCCC(=O)*)N1

B1: soluble LIMP‐2 (sLIMP‐2), secreted LIMP‐2 ectodomain (domain or fragment, human, UniProt Q14108 36-431, looked up)
chain: SIEKKIVLRNGTEAFDSWEKPPLPVYTQFYFFNVTNPEEILRGETPRVEEVGPYTYRELRNKANIQFGDNGTTISAVSNKAYVFERDQSVGDPKIDLIRTLNIPVLTVIEWSQVHFLREIIEAMLKAYQQKLFVTHTVDELLWGYKDEILSLIHVFRPDISPYFGLFYEKNGTNDGDYVFLTGEDSYLNFTKIVEWNGKTSLDWWITDKCNMINGTDGDSFHPLITKDEVLYVFPSDFCRSVYITFSDYESVQGLPAFRYKVPAEILANTSDNAGFCIPEGNCLGSGVLNVSICKNGAPIIMSFPHFYQADERFVSAIEGMHPNQEDHETFVDINPLTGIILKAAKRFQINIYVKKLDDFVETGDIRTMVFPVMYLNESVHIDKETASRLKSMINT
notes: lysosomal integral membrane protein 2 (LIMP-2), human, luminal domain, amino acids 36-431; also called LIMP-2 shuttle; sLIMP-2-shuttle; source: HEK 293F, transfected, secreted into conditioned medium; purified (Ni-NTA, SEC); not shown: 10xHis (TEV-cleavable), C-terminal, kept
For B1, the binding result with untagged human GCase wt, with untagged GCase E326K and with untagged GCase N370S was “binds” each time.

B2: L2H5‐wt peptide (LIMP‐2‐derived helix 5 peptide) (peptide)
peptide: Biotin-KFERQGSGSQVHFLREIIEAMLKAYQSGSGYGRKKRRQRRR-NH2
notes: also called LIMP-2-derived peptide; LIMP-2-mimicking peptide; source: synthetic peptide (BioCat, >95% purity)
Regarding B2, the Kd (commonly the free concentration of one partner at which half of the binding sites on the other are occupied at equilibrium, for simple one-to-one binding) in assay [1] is about 98 µM; in assay [2], 0.153 ± 0.037 µM.
